In US20260242485A1 (LEPU BIOPHARMA, published 2026) one finds binding result and EC50 data, which are given here for four molecules.

The target of experiment [1] is T1, human CD32B expressed on CHO-K1 cells (human, UniProt P31994 43-310).
T1 construct: whole, on cells; also called hCD32B
T1 sequence (looked up): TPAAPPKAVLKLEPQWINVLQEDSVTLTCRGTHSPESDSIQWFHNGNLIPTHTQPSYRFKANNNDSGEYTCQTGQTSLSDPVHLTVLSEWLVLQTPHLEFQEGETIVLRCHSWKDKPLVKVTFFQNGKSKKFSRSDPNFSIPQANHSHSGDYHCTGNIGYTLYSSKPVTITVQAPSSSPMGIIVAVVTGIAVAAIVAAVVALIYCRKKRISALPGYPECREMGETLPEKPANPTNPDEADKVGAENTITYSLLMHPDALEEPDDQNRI
As to the kind of experiment: flow cytometry, CHO-K1-hCD32B cells, geometric mean. From the text:
(§1) The purpose of the assay was to evaluate the binding of BsAb to each of the hFcγRs.

The target of experiment [2] is T2, human CD16A-158V expressed on CHO-K1 cells (human, UniProt P08637 17-254).
T2 construct: whole, on cells; also called hCD16A-158V; CHO-K1-hCD16A-158V
T2 sequence (P08637 17-254 F176V): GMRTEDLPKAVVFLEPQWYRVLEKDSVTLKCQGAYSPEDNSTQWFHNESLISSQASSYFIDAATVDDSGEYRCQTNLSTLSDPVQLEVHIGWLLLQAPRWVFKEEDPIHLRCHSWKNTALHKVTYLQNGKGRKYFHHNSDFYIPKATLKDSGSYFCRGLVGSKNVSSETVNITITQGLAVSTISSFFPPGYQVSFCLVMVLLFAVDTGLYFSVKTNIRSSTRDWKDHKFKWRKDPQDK
Put plainly: flow cytometry, CHO-K1-hCD16A-158V cells, geometric mean.
Description: as §1
In general terms: A flow cytometer gives signals particle by particle.

Experiment [3] concerns the target T3, human CD16A-158F expressed on CHO-K1 cells (human, UniProt P08637 17-254).
T3 construct: whole, on cells
As to the kind of experiment: flow cytometry, CHO-K1-hCD16A-158F cells, geometric mean.
Description: as §1

T3 sequence (P08637 17-254): as the sequence (P08637 17-254 F176V) above, with V160F counted along it

B1: CCR8-hIgG1DE (antibody)
heavy chain: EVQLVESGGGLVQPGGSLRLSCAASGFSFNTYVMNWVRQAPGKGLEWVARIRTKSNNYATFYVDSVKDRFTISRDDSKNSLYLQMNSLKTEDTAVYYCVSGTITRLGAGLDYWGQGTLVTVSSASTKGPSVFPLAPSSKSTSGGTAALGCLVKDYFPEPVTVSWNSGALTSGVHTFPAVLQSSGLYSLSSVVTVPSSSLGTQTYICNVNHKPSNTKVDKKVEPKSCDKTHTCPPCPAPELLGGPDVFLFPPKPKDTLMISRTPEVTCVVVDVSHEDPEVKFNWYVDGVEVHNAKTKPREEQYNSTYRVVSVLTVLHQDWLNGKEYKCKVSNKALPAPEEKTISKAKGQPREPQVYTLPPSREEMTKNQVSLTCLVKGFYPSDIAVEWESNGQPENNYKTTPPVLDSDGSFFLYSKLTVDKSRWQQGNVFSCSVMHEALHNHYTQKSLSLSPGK
light chain: DIVMTQSPLSLPVTPGEPASISCRSSKSLLHSNANTYLYWYLQKPGQSPQLLIYRMSNLASGVPDRFSGSGSGTAFTLKISRVEAEDVGVYYCMQHLEYPFTFGGGTKLEIKRTVAAPSVFIFPPSDEQLKSGTASVVCLLNNFYPREAKVQWKVDNALQSGNSQESVTEQDSKDSTYSLSSTLTLSKADYEKHKVYACEVTHQGLSSPVTKSFNRGEC
notes: also called eADCC CCR8 mAb with Fc-DE (S239D/I332E)
With B1, the binding result in experiment [1] was “binds”. The EC50 in experiment [2] came out at 0.8 nM; in experiment [3], 1.4 nM.

B2: CCR8-45H6E8-hIgG1 (bispecific antibody)
heavy: not shown
light: DIVMTQSPLSLPVTPGEPASISCRSSKSLLHSNANTYLYWYLQKPGQSPQLLIYRMSNLASGVPDRFSGSGSGTAFTLKISRVEAEDVGVYYCMQHLEYPFTFGGGTKLEIKRTVAAPSVFIFPPSDEQLKSGTASVVCLLNNFYPREAKVQWKVDNALQSGNSQESVTEQDSKDSTYSLSSTLTLSKADYEKHKVYACEVTHQGLSSPVTKSFNRGEC
notes: Format 1: anti-CCR8 IgG1 with wildtype Fc and 45H6E8 scFv at the C-terminus of each heavy chain; also called CCR8-45H6E8-hIgG1 BsAb; CCR8-45H6E8 WT BsAb
For B2, the binding result in experiment [1] is on record as “binds”. Moreover, the EC50 was determined as 0.1 nM in experiment [2] and 0.095 nM in experiment [3].

B3: CCR8-hIgG1DLE (antibody)
heavy chain: EVQLVESGGGLVQPGGSLRLSCAASGFSFNTYVMNWVRQAPGKGLEWVARIRTKSNNYATFYVDSVKDRFTISRDDSKNSLYLQMNSLKTEDTAVYYCVSGTITRLGAGLDYWGQGTLVTVSSASTKGPSVFPLAPSSKSTSGGTAALGCLVKDYFPEPVTVSWNSGALTSGVHTFPAVLQSSGLYSLSSVVTVPSSSLGTQTYICNVNHKPSNTKVDKKVEPKSCDKTHTCPPCPAPELLGGPDVFLFPPKPKDTLMISRTPEVTCVVVDVSHEDPEVKFNWYVDGVEVHNAKTKPREEQYNSTYRVVSVLTVLHQDWLNGKEYKCKVSNKALPLPEEKTISKAKGQPREPQVYTLPPSREEMTKNQVSLTCLVKGFYPSDIAVEWESNGQPENNYKTTPPVLDSDGSFFLYSKLTVDKSRWQQGNVFSCSVMHEALHNHYTQKSLSLSPGK
light chain: DIVMTQSPLSLPVTPGEPASISCRSSKSLLHSNANTYLYWYLQKPGQSPQLLIYRMSNLASGVPDRFSGSGSGTAFTLKISRVEAEDVGVYYCMQHLEYPFTFGGGTKLEIKRTVAAPSVFIFPPSDEQLKSGTASVVCLLNNFYPREAKVQWKVDNALQSGNSQESVTEQDSKDSTYSLSSTLTLSKADYEKHKVYACEVTHQGLSSPVTKSFNRGEC
notes: also called eADCC CCR8 mAb with Fc-DLE (S239D/A330L/I332E)
With B3, the binding result in experiment [1] is recorded as “binds”. Moreover, the EC50 in experiment [2] was found to be 0.75 nM; in experiment [3] it was 1.2 nM.

B4: CCR8-hIgG1Afucosylated (antibody)
heavy: not shown
light: DIVMTQSPLSLPVTPGEPASISCRSSKSLLHSNANTYLYWYLQKPGQSPQLLIYRMSNLASGVPDRFSGSGSGTAFTLKISRVEAEDVGVYYCMQHLEYPFTFGGGTKLEIKRTVAAPSVFIFPPSDEQLKSGTASVVCLLNNFYPREAKVQWKVDNALQSGNSQESVTEQDSKDSTYSLSSTLTLSKADYEKHKVYACEVTHQGLSSPVTKSFNRGEC
modifications: chain 1 pos 303 (EU N297): the Fc N-glycan lacks core fucose (afucosylated); the letters are unchanged
notes: also called anti-hCCR8 monoclonal antibody with Fc-afucosylated; copies: 2 + 2
On to B4, for which the binding result in experiment [1] is reported as “binds”. Besides, the EC50 in experiment [2] was found to be 0.45 nM; in experiment [3], 3.5 nM.

As usually defined, the EC50 is the concentration at which the effect is half-maximal. A high value points to lower potency in that assay.
